Experimental data: the supplement of paper PMC10126150
± gives the standard deviation of the averaged measurements.

Tested on: ATP
Assay: switch fluorescence ratio, 500 uM ATP over buffer (Cy3 cluster intensity, sum of 5 cycles each) (fold (ratio)); higher = stronger signal-on switching upon ATP binding; sequences stand for … in TCGTCGGCAGCGTCAGATGTGTATAAGAGACAGTTTTTTTTTTTTTTTTTTTTTTTTT…TC
Settings: aptamer strand: ATP DNA aptamer (quencher-CACCTGGGGGAGTATTGCGGAGGAAGG + anchor), 100 nM annealed; ATP concentration: 500 uM
Procedure, shortened: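 Clusters carrying Cy3-labelled switching strands on a modified Illumina MiSeq flow-cell were annealed to 100 nM quencher-labelled ATP aptamer and imaged in selection buffer. They were imaged again after 15 min with 500 uM ATP at 22 °C, over five buffer/ATP cycles with NaOH stripping and re-annealing in between. For each cluster, the fluorescence ratio is the summed Cy3 intensity of the target cycles divided by that of the buffer cycles, averaged per switch-domain sequence. Clusters outside 100-1000 RFU were left out.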
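Also: ATP exposure 15 min at 22 °C before imaging.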

Sequence	switch fluorescence ratio
GCGTTAAGCA	0.968 ± 0.07
GCGTTAGCCA	1.01 ± 0.022
GCGTTGCAGG	1.02 ± 0.018
GCGTTTAATA	0.997 ± 0.014
GCGTTTAGGG	1.03 ± 0.054
GCGTTTTCGT	0.972 ± 0.013
GCTAAAATTT	1 ± 0.029
GCTAATATGG	0.998 ± 0.044
GCTAATGGTC	0.977 ± 0.085
GCTAATGTTA	1.01 ± 0.03
GCTAATGTTT	0.998 ± 0.031
GCTAATTATA	1.01 ± 0.015
GCTACCGGTG	1.1 ± 0.072
GCTAGAAATG	0.978 ± 0.043
GCTAGATCAC	1.02 ± 0.025
GCTAGCCAAA	0.998 ± 0.011
GCTAGCGGTC	1.08 ± 0.02
GCTAGCGTGG	1.02 ± 0.091
GCTAGCTCAG	1.023 ± 0.008
GCTAGGGCGT	0.972 ± 0.051
GCTAGGTGAC	1.1 ± 0.037
GCTAGGTGTA	1.12 ± 0.043
GCTAGTAAGA	1.014 ± 0.008
GCTATAAGTG	0.969 ± 0.027
GCTATATAGT	1.01 ± 0.011

Sequence	switch fluorescence ratio
GCTATATGGC	1.01 ± 0.024
GCTATCTGGA	0.998 ± 0.031
GCTATGAACC	1.0349 ± 0.0008
GCTATGATAA	0.9933 ± 0.0072
GCTATGCCTA	0.997 ± 0.023
GCTATGGGAT	0.995 ± 0.04
GCTATTATAT	1.02 ± 0.015
GCTATTGGAA	0.993 ± 0.022
GCTCAAGGTA	1.006 ± 0.0044
GCTCAATTGG	1.018 ± 0.006
GCTCAGTAGT	1.03 ± 0.027
GCTCATAGAT	0.988 ± 0.013
GCTCATAGCA	1.02 ± 0.022
GCTCCAGTTA	1.178 ± 0.0045
GCTCCCAGGA	1.92 ± 0.026
GCTCCCGGGG	1.24 ± 0.12
GCTCCGGGCG	1.13 ± 0.075
GCTCCTACGA	1.46 ± 0.046
GCTCGACTTT	1.02 ± 0.012
GCTCGGATAA	1.0306 ± 0.00026
GCTCGTGATA	1.21 ± 0.05
GCTCTATGTA	1.03 ± 0.014
GCTCTCTTTT	0.9805 ± 0.0037
GCTCTGAGTA	1.04 ± 0.073
GCTCTGGCAA	1.57 ± 0.07

Sequence	switch fluorescence ratio
GCTCTTATTA	0.977 ± 0.021
GCTCTTGGGC	0.999 ± 0.012
GCTCTTTGAC	0.987 ± 0.029
GCTCTTTTGG	0.997 ± 0.019
GCTGAAAGTG	1 ± 0.057
GCTGAACTTC	0.9804 ± 0.0089
GCTGAAGGTT	1.25 ± 0.36
GCTGAATAAG	0.9815 ± 0.0088
GCTGACTGGT	0.9939 ± 0.001
GCTGAGGTGA	1.02 ± 0.042
GCTGATACTT	1.07 ± 0.02
GCTGATGCGG	0.999 ± 0.012
GCTGATGGTG	0.989 ± 0.02
GCTGCGACCA	1.131 ± 0.0024
GCTGCTAGTG	0.97 ± 0.017
GCTGCTGTAT	1.01 ± 0.022
GCTGGAGGTC	1.01 ± 0.03
GCTGGCAGAC	1.23 ± 0.032
GCTGGCTGGC	1.01 ± 0.11
GCTGGGAATA	0.9499 ± 0.0028
GCTGGGCACG	0.954 ± 0.015
GCTGGGCATT	0.99173 ± 0.00022
GCTGGGCGGC	0.95 ± 0.014
GCTGGGGGAG	0.982 ± 0.067
GCTGGGGGGT	1 ± 0.044

Sequence	switch fluorescence ratio
GCTGGGTATT	0.9435 ± 0.0054
GCTGGTATTG	1 ± 0.031
GCTGGTGTTG	1 ± 0.013
GCTGGTTAAA	0.97834 ± 0.00053
GCTGTAAAGA	0.983 ± 0.029
GCTGTAAGGG	0.988 ± 0.028
GCTGTAGGCC	1.02 ± 0.014
GCTGTAGGTG	1.039 ± 0.0033
GCTGTAGGTT	1 ± 0.011
GCTGTATGAG	0.985 ± 0.029
GCTGTATGGC	1.01 ± 0.027
GCTGTCATGA	0.9853 ± 0.0074
GCTGTGGTT	0.9376 ± 0.00097
GCTGTTACGG	0.983 ± 0.016
GCTGTTGTCG	0.974 ± 0.052
GCTTAAGGGC	0.956 ± 0.033
GCTTACAGGA	1.01 ± 0.033
GCTTAGGATT	1.01 ± 0.033
GCTTATTAGT	1 ± 0.0042
GCTTCAGGGT	0.989 ± 0.025
GCTTCCGGGG	1.27 ± 0.06
GCTTCGAGGG	0.968 ± 0.013
GCTTCGGGGG	1.06 ± 0.043
GCTTCGTTGG	1.17 ± 0.18
GCTTCTGAGG	1.07 ± 0.018

Sequence	switch fluorescence ratio
GCTTCTGGAA	1.06 ± 0.018
GCTTCTGGTT	0.988 ± 0.023
GCTTGCACTA	0.998 ± 0.015
GCTTGCCGGT	1 ± 0.037
GCTTGCGATG	1.01 ± 0.011
GCTTGCTATT	0.965 ± 0.021
GCTTGCTTTT	0.989 ± 0.022
GCTTGGACGG	1.02 ± 0.055
GCTTGGATAA	1.02 ± 0.032
GCTTGGGATT	0.977 ± 0.029
GCTTGGTGCT	1.05 ± 0.031
GCTTGTGACG	1.02 ± 0.058
GCTTGTTTGT	1.02 ± 0.024
GCTTTAAGTA	0.992 ± 0.044
GCTTTAGAGG	1.004 ± 0.0053
GCTTTATTGC	1.01 ± 0.014
GCTTTCATTT	1.013 ± 0.0049
GCTTTCCCTT	1.022 ± 0.01
GCTTTCGATG	1.02 ± 0.02
GCTTTCTCGG	1.08 ± 0.048
GCTTTGATTT	1.02 ± 0.022
GCTTTGGAAG	0.985 ± 0.034
GCTTTGGGAC	1.25 ± 0.28
GCTTTGTACG	1.042 ± 0.0014
GCTTTTAAGT	0.99809 ± 0.00068

Sequence	switch fluorescence ratio
GCTTTTAGCC	0.991 ± 0.043
GCTTTTCGTA	0.9995 ± 0.0064
GCTTTTGTTT	1.04 ± 0.013
GCTTTTTCTT	1.018 ± 0.004
GCTTTTTTTT	1.01 ± 0.019
GGAAAAAGGC	0.9838 ± 0.0058
GGAAAAAGTG	0.991 ± 0.014
GGAAAAGAGA	1.01 ± 0.017
GGAAACAGGG	0.964 ± 0.02
GGAAACGATT	1.01 ± 0.035
GGAAACTAGG	1.016 ± 0.003
GGAAAGGGAT	0.991 ± 0.012
GGAAAGTTGG	0.996 ± 0.012
GGAAATAAAA	1.22 ± 0.24
GGAAATGAGT	1.02 ± 0.016
GGAAATGGGT	1.05 ± 0.036
GGAAATGTCG	0.918 ± 0.078
GGAAATTCAT	1.36 ± 0.54
GGAACAGGGT	0.934 ± 0.072
GGAACGGGGA	1.01 ± 0.017
GGAACGGGTC	1.02 ± 0.024
GGAACTGCTG	1.04 ± 0.029
GGAACTTTTA	1.01 ± 0.023
GGAAGAATGG	0.985 ± 0.024
GGAAGATGGG	0.99 ± 0.021

Sequence	switch fluorescence ratio
GGAAGGGTTG	1 ± 0.034
GGAAGGTGGG	1.15 ± 0.25
GGAAGGTTTT	0.97669 ± 0.00029
GGAAGTAGAT	1.01 ± 0.028
GGAAGTGGCA	1.01 ± 0.041
GGAATAATGT	1.03 ± 0.061
GGAATAGATT	0.99048 ± 0.00037
GGAATAGGCT	0.967 ± 0.059
GGAATCCGGC	1.06 ± 0.02
GGAATGTGAA	0.978 ± 0.019
GGAATGTGGG	0.984 ± 0.042
GGAATGTTGC	0.9733 ± 0.0039
GGAATTATTG	1.08 ± 0.15
GGAATTTCGG	1.17 ± 0.23
GGAATTTGGA	0.983 ± 0.057
GGAATTTGGG	0.99 ± 0.021
GGACAATGAG	0.998 ± 0.035
GGACACTCTG	0.977 ± 0.013
GGACAGGTTT	0.9784 ± 0.0034
GGACAGTTGT	1.01 ± 0.057
GGACCAGGGA	1 ± 0.046
GGACCGGCTA	0.998 ± 0.02
GGACGACCGG	1.02 ± 0.027
GGACGGCTGC	1.02 ± 0.029
GGACGGGGAC	1.12 ± 0.015

Sequence	switch fluorescence ratio
GGACGGGTGC	1.1 ± 0.088
GGACTACCTG	1.01 ± 0.022
GGACTAGGTT	1.006 ± 0.0033
GGACTCTAGG	0.979 ± 0.027
GGACTGAGGA	1.002 ± 0.01
GGACTGTGGG	1.02 ± 0.044
GGACTGTTTG	1.01 ± 0.041
GGACTTAATG	1.02 ± 0.016
GGACTTGGTT	1.01 ± 0.034
GGAGAATATT	1.02 ± 0.059
GGAGACGGGT	1.02 ± 0.036
GGAGAGAAGC	1.02 ± 0.076
GGAGAGATTT	1.01 ± 0.034
GGAGAGGTTG	0.971 ± 0.021
GGAGAGTCGG	0.977 ± 0.035
GGAGATATTA	1.01 ± 0.026
GGAGCAAAGG	2.63 ± 0.1
GGAGCGAGGG	1.11 ± 0.061
GGAGGAAGAT	1.047 ± 0.0093
GGAGGACTCG	0.982 ± 0.05
GGAGGAGAAT	1 ± 0.014
GGAGGCCCCA	0.996 ± 0.033
GGAGGCGTTC	0.995 ± 0.013
GGAGGCTGAG	0.993 ± 0.011
GGAGGGACTG	1.06 ± 0.17
